Experimental findings from US20110217237A1 (AbbVie / Abbott, published 2011) are described below.

The target in assay [1] is T1, human DLL4 extracellular domain (human, UniProt Q9NR61 27-529).
T1 construct: purified recombinant ECD; biotin-labelled or 6xHis-tagged depending on the assay; also called huDLL4 ECD; hu DLL4 ECD
Briefly: SPR (Biacore). The protocol: Binding of DLL4 antibodies to a purified recombinant DLL4 extracellular domain (ECD) was determined by surface plasmon resonance-based measurements with a Biacore® instrument (either a Biacore 2000, Biacore 3000, or Biacore T100; GE Healthcare, Piscataway, N.J., US) using running buffer HBS-EPB (10 mM HEPES [pH 7.4], 150 mM NaCl, 3 mM EDTA, 0.1 mg/ml BSA and 0.005% surfactant P20) at 25° C. For example, approximately 9000 RU of goat anti-human Fc specific polyclonal antibody (Thermo Fisher Scientific Inc., Rockford, Ill., US) diluted in 10 mM sodium acetate (pH 4.5) is directly immobilized across a CMS research grade biosensor chip using a standard amine coupling kit according to manufacturer's instructions and procedures at 25 μg/ml. Unreacted moieties on the biosensor surface were blocked with ethanolamine. For kinetic analysis, rate equations derived from the 1:1 Langmuir binding model were fitted simultaneously to multiple antigen injections (using global fit analysis) with the use of Scrubber 2 (BioLogic Software), Biacore Biaevaluation 4.0.1 software or Biacore T100 Evaluation software. Purified antibodies were diluted in running buffer for capture across goat anti-human Fc reaction surfaces. Antibodies to be captured as a ligand (1 μg/ml) were injected over reaction matrices at a flow rate of 10 μl/min. During the assay, all measurements were referenced against the capture surface alone (i.e., with no captured anti-DLL4 antibody). […] The equilibrium dissociation constant KD (M) of the reaction between antibodies and the target antigen was then calculated from the kinetic rate constants by the following formula: KD=Koff/Kₒₙ. Binding was recorded as a function of time and kinetic rate constants were calculated. In this assay, on-rates as fast as 10⁶ M⁻¹s⁻¹ and off-rates as slow as 10⁻⁶ s⁻¹ could be measured.
The good binder variants, as determined by binding ELISA, were assessed by Biacore (Example 1.1) concurrently with cell based assay screens.
A general note: Surface plasmon resonance follows binding to a sensor surface in real time, without labels.

In assay [2] the target is T1, human DLL4 extracellular domain. Description: capture ELISA, biotin-huDLL4 ECD. A general note: In an ELISA, binding on a coated surface is turned into a signal by an enzyme label.
The target is the same in assay [3]. Briefly: competition ELISA vs Notch-1 Fc. The protocol: Plates were then washed 3 times with wash buffer (PBS, 0.05% Tween-20) and blocked with 200 μl/well blocking buffer (D-PBS, 1% BSA, 1 mM CaCl₂, 0.05% Tween-20) for 1 hour at 25° C. While blocking, biotin labeled DLL4 extracellular domain (14 nM) was mixed with antibody (30 pM-66 nM, 3-fold serial dilution in blocking buffer) for 1 hour at 25° C. with shaking. Assay plates were washed after blocking, and incubated with DLL4/antibody mixtures (100 μl/well, 1 hour at 25° C. with shaking). Plates were washed again and 100 μl/well streptavidin conjugated with HRP (Fitzgerald #65R-S104PHRPx, diluted 1:5,000 in blocking buffer) was added for 1 hour at 25° C. with shaking. After a final wash, plates were developed using 100 μl/well substrate (TMB Sigma #T8665), and the reaction was stopped using 100 μl/well 1N HCl, and the absorbance was read at 450 nm. Data were analyzed using Graphpad Prism software and IC₅₀ values were reported as the concentration of antibody to achieve 50% reduction of DLL4 bound to Notch1.
Purified variants were further characterized in human Notch-1 competition ELISAs (Example 1.4), which used a format of plating Notch-1 Fc onto ELISA plates and pre-incubating biotinylated human DLL4 plus titrated antibody. Signal was assessed by free biotinylated DLL4 binding to Notch-1 Fc.

In assay [4] the target is T2, human DLL4, full length, on cells (human, UniProt Q9NR61 27-685). Description: cell-based or functional assay.
T2 sequence (Q9NR61 27-685 limits assumed): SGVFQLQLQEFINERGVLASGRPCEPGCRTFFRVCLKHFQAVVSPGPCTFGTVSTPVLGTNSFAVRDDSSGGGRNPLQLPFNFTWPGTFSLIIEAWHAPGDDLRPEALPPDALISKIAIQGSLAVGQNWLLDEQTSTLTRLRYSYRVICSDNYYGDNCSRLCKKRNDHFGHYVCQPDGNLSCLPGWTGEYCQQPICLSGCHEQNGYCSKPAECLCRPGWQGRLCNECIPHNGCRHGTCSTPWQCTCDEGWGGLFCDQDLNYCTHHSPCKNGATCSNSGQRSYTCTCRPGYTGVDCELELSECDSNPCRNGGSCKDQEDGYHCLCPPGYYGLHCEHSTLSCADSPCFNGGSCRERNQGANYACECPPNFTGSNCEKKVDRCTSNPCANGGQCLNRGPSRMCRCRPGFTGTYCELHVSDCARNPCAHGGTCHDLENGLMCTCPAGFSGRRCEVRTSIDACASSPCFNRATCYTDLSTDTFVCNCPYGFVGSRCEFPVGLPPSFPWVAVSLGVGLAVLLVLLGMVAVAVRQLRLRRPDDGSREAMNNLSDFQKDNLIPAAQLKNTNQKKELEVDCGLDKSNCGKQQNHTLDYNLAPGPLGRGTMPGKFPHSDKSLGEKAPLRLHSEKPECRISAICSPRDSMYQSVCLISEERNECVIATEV
Assay [5] concerns the target T2, human DLL4, full length, on cells. Description: FACS, DLL4 cells. On the procedure: Stable cell lines overexpressing cell-surface DLL4 were harvested from tissue culture flasks, washed four times and resuspended in phosphate buffered saline (PBS) containing 1% bovine serum albumin and 1 mM CaCl₂ (FACS buffer). 1.5×10⁵ cells were incubated with antibodies at various concentrations in FACS buffer for 60 minutes on ice. […] Following an incubation on ice (4° C., 60 minutes), cells were washed three times and resuspended in FACS buffer. Fluorescence was measured using a Becton Dickinson FACSCalibur-HTS (Becton Dickinson, San Jose, Calif., US). Data were analyzed using Graphpad Prism software and EC₅₀ values were reported as the concentration of antibody to achieve 50% of maximal DLL4 antibodies binding to DLL4 expressing cells.
The good binder variants, as determined by binding ELISA, were assessed by Biacore (Example 1.1) concurrently with cell based assay screens. The KD for human DLL4 was similar for all variants (see, Biacore, KD in Table 18, below).
In general terms: In flow cytometry, cells or beads pass a laser one at a time.

T1 sequence (Q9NR61 27-529 limits assumed): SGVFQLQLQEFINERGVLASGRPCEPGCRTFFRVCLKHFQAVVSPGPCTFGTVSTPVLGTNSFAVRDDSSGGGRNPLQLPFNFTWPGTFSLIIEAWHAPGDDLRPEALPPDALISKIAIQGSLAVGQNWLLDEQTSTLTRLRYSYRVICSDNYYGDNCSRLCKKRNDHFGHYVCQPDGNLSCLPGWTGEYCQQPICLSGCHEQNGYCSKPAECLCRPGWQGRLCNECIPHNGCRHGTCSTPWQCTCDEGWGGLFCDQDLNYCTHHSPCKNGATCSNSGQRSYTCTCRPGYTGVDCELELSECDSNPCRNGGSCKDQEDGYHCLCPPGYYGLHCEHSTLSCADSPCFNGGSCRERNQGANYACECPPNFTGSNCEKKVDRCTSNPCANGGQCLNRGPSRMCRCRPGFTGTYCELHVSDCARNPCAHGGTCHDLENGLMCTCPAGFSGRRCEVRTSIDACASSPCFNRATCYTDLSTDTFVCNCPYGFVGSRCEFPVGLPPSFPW

B1: h38H12.11 (antibody, V domains shown)
VH: EVQLVESGGGVVQPGRSLRLSCAASGFTFSNYGMYWVRQAPGKGLEWVAFISHGGGITYYRDSVKGRFTISRDNSKNTLYLQMNSLRAEDTAVYYCAALNWELGIDYWGQGTMVTVSS
VL: DIQMTQSPSSLSASVGDRVTITCRASEDIYSNLAWYQQKPGKAPKLLIYAANRLQDGVPSRFSGSGSGTDYTLTISSLQPEDFATYYCLQGSKFPLTFGQGTKLEIKR
notes: humanized IgG; also called VH.1b/VL.1b 38H12
As usually defined, the Kd is the equilibrium constant for the complex coming apart. By EC50 is commonly meant the midpoint of the concentration-response curve. A lower EC50 goes with an effect from little substance. B1 showed a Kd in assay [1] of 0.554 nM. Further, the EC50 in assay [2] was found to be 0.126 nM; in assay [3], 3.8 nM; in assay [5], 2.48 nM. Moreover, the “Notch Reporter Assay EC50” value in assay [4] came to 0.657 nM.

B2: h38H12.14 (antibody, V domains shown)
VH: EVQLVESGGGLVQPGGSLRLSCAASGFTFSNYGMYWIRQAPGKGLEWVAFISHGGGITYYRDSVKGRFTISRDNSKSTLYLQMNSLRAEDTAVYHCAALNWELGIDYWGQGTMVTVSS
VL: DIQMTQSPSSLSASVGDRVTITCRASEDIYSNLAWYQKKPGKSPKLLIYAANRLQDGVPSRFSGSGSGTDYTLTISSLQPEDFATYFCLQGSKFPLTFGQGTKLEIKR
notes: humanized IgG; also called VH.2a/VL.1a 38H12
Take B2: the Kd in assay [1] stood at 0.303 nM. In addition, the half-maximal effective concentration (EC50) in assay [2] amounted to 0.146 nM; in assay [3], 5.84 nM; in assay [5], 1.04 nM. Besides, the “Notch Reporter Assay EC50” value in assay [4] came out at 1.01 nM.

B3: h38H12.13 (antibody, V domains shown)
VH: EVQLVESGGGLVQPGGSLRLSCAASGFTFSNYGMYWIRQAPGKGLEWVAFISHGGGITYYRDSVKGRFTISRDNSKSTLYLQMNSLRAEDTAVYHCAALNWELGIDYWGQGTMVTVSS
VL: DIQMTQSPSSLSASVGDRVTITCRASEDIYSNLAWYQQKPGKAPKLLIYAANRLQDGVPSRFSGSGSGTDFTLTISSLQPEDFATYYCLQGSKFPLTFGQGTKLEIKR
notes: humanized IgG; also called VH.2a/VL.1 38H12
In the case of B3, the affinity in assay [1], expressed as Kd, was 0.507 nM. Also, the EC50 in assay [2] was 0.153 nM; in assay [3], 5.29 nM; in assay [5], 2.56 nM. Moreover, the “Notch Reporter Assay EC50” value in assay [4] amounted to 0.794 nM.

B4: h38H12.9 (antibody, V domains shown)
VH: EVQLVESGGGVVQPGRSLRLSCAASGFTFSNYGMYWVRQAPGKGLEWVAFISHGGGITYYRDSVKGRFTISRDNSKNTLYLQMNSLRAEDTAVYYCAALNWELGIDYWGQGTMVTVSS
VL: DIQMTQSPSSLSASVGDRVTITCRASEDIYSNLAWYQQKPGKAPKLLIYAANRLQDGVPSRFSGSGSGTDFTLTISSLQPEDFATYYCLQGSKFPLTFGQGTKLEIKR
notes: humanized IgG; also called VH.1b/VL.1 38H12
Take B4: binding in assay [1] was put at a Kd of 0.986 nM. In addition, the half-maximal effective concentration (EC50) in assay [2] is 0.116 nM; in assay [3] it was 4.16 nM; in assay [5], 3.71 nM. Further, the “Notch Reporter Assay EC50” value in assay [4] was found to be 1.44 nM.

B5: h38H12.6 (antibody, V domains shown)
VH: EVQLVESGGGVVQPGRSLRLSCAASGFTFSNYGMYWIRQAPGKGLEWVAFISHGGGITYYRDSVKGRFTISRDNSKSTLYLQMNSLRAEDTAVYHCAALNWELGIDYWGQGTMVTVSS
VL: DIQMTQSPSSLSASVGDRVTITCRASEDIYSNLAWYQKKPGKSPKLLIYAANRLQDGVPSRFSGSGSGTDYTLTISSLQPEDFATYFCLQGSKFPLTFGQGTKLEIKR
notes: humanized IgG; also called VH.1a/VL.1a 38H12
Turning to B5, the Kd in assay [1] is 0.434 nM. Further, the concentration giving a half-maximal response (EC50) was 0.158 nM in assay [2], 27 nM in assay [3] and 12.3 nM in assay [5]. Further, the “Notch Reporter Assay EC50” value in assay [4] is 6.32 nM.

B6: h38H12.4 (antibody, V domains shown)
VH: EVQLVESGGGVVQPGRSLRLSCAASGFTFSNYGMYWVRQAPGKGLEWVAFISHGGGITYYRDSVKGRFTISRDNSKNTLYLQMNSLRAEDTAVYYCARLNWELGIDYWGQGTMVTVSS
VL: EIVMTQSPATLSVSPGERATLSCRASEDIYSNLAWYQKKPGQSPRLLIYAANRLQDGVPARFSGSGSGTEYTLTISSLQSEDFAVYFCLQGSKFPLTFGQGTKLEIKR
notes: humanized IgG; also called VH.1/VL.2a 38H12
In the case of B6, a half-maximal response in assay [2] (EC50) required 20.6 nM. This lies in the double-digit nanomolar range.

B7: h38H12.3 (antibody, V domains shown)
VH: EVQLVESGGGVVQPGRSLRLSCAASGFTFSNYGMYWVRQAPGKGLEWVAFISHGGGITYYRDSVKGRFTISRDNSKNTLYLQMNSLRAEDTAVYYCARLNWELGIDYWGQGTMVTVSS
VL: DIQMTQSPSSLSASVGDRVTITCRASEDIYSNLAWYQQKPGKAPKLLIYAANRLQDGVPSRFSGSGSGTDYTLTISSLQPEDFATYYCLQGSKFPLTFGQGTKLEIKR
notes: humanized IgG; also called VH.1/VL.1b 38H12
Take B7: in assay [2], the half-maximal effective concentration (EC50) is 5.57 nM. Against the preceding molecule, the EC50 is about 3.7-fold lower.

B8: h38H12.1 (antibody, V domains shown)
VH: EVQLVESGGGVVQPGRSLRLSCAASGFTFSNYGMYWVRQAPGKGLEWVAFISHGGGITYYRDSVKGRFTISRDNSKNTLYLQMNSLRAEDTAVYYCARLNWELGIDYWGQGTMVTVSS
VL: DIQMTQSPSSLSASVGDRVTITCRASEDIYSNLAWYQQKPGKAPKLLIYAANRLQDGVPSRFSGSGSGTDFTLTISSLQPEDFATYYCLQGSKFPLTFGQGTKLEIKR
notes: humanized IgG; also called VH.1/VL.1 38H12
As to B8, the EC50 turned out to be 21.5 nM in assay [2] and 17.8 nM in assay [5].

B9: h38H12.2 (antibody, V domains shown)
VH: EVQLVESGGGVVQPGRSLRLSCAASGFTFSNYGMYWVRQAPGKGLEWVAFISHGGGITYYRDSVKGRFTISRDNSKNTLYLQMNSLRAEDTAVYYCARLNWELGIDYWGQGTMVTVSS
VL: DIQMTQSPSSLSASVGDRVTITCRASEDIYSNLAWYQKKPGKSPKLLIYAANRLQDGVPSRFSGSGSGTDYTLTISSLQPEDFATYFCLQGSKFPLTFGQGTKLEIKR
notes: humanized IgG; also called VH.1/VL.1a 38H12
For B9, it took 26.9 nM to reach a half-maximal effect in assay [2] (EC50).

B10: h38H12.10 (antibody, V domains shown)
VH: EVQLVESGGGVVQPGRSLRLSCAASGFTFSNYGMYWVRQAPGKGLEWVAFISHGGGITYYRDSVKGRFTISRDNSKNTLYLQMNSLRAEDTAVYYCAALNWELGIDYWGQGTMVTVSS
VL: DIQMTQSPSSLSASVGDRVTITCRASEDIYSNLAWYQKKPGKSPKLLIYAANRLQDGVPSRFSGSGSGTDYTLTISSLQPEDFATYFCLQGSKFPLTFGQGTKLEIKR
notes: humanized IgG; also called VH.1b/VL.1a 38H12
In assay [1], B10 displayed a Kd of 0.578 nM. The concentration for a half-maximal effect (EC50) in assay [2] was 0.123 nM; in assay [3] it was 3.9 nM; in assay [5], 2.49 nM. Further, the “Notch Reporter Assay EC50” value in assay [4] was 0.786 nM.

B11: h38H12.5 (antibody, V domains shown)
VH: EVQLVESGGGVVQPGRSLRLSCAASGFTFSNYGMYWIRQAPGKGLEWVAFISHGGGITYYRDSVKGRFTISRDNSKSTLYLQMNSLRAEDTAVYHCAALNWELGIDYWGQGTMVTVSS
VL: DIQMTQSPSSLSASVGDRVTITCRASEDIYSNLAWYQQKPGKAPKLLIYAANRLQDGVPSRFSGSGSGTDFTLTISSLQPEDFATYYCLQGSKFPLTFGQGTKLEIKR
notes: humanized IgG; also called VH.1a/VL.1 38H12
The molecule B11 returned an equilibrium dissociation constant (Kd) in assay [1] of 0.401 nM. The EC50 in assay [2] came out at 0.202 nM; in assay [3] it was 14.8 nM; in assay [5], 77.2 nM. The “Notch Reporter Assay EC50” value in assay [4] is 7.31 nM.
